Experimental data reported in article PMC2323298.

What follows are substances tested against Mouse monoclonal antibody 1F9 (isotype IgG2b with a Kappa light chain) (assay: phage ELISA). Conditions: immobilized 1F9; phage dilution 5 (first point of the series); duplicate; parent: est. 0.88; read off a plot.

Row | Substance | response (absorbance 450 nm)
1 | 3D7 AMA1 domain I expressed on M13 phage N228K | 0.38
2 | 3D7 AMA1 domain I expressed on M13 phage F201V | 0.06
3 | 3D7 AMA1 domain I expressed on M13 phage F201L | 0.53
4 | 3D7 AMA1 domain I expressed on M13 phage D204N | 0.06
5 | 3D7 AMA1 domain I expressed on M13 phage H200L | 0.17
